Measurements from the supplement of paper PMC10724198.
± gives the standard deviation of the averaged measurements.

Legend:
Saccharomyces cerevisiae [1] = test: protein stability index of tFT-peptide fusion (C-terminal peptide) (PSI (0-1 scale)); higher = more stable (slower turnover)
Procedure: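 MPS profiling in S. cerevisiae of the tFT-X12 degron library: putative degron peptides plus stable controls, 12 aa, fused to the C-terminus of a sfGFP-mCherry timer. Cells are FACS-sorted into 8 mCherry/sfGFP bins and deep-sequenced. PSI runs from 0 (unstable) to 1 (stable). Backgrounds are wild type, das1Δ and doa10Δ at 30 °C, and wild type, das1Δ, cdc34-1 and cdc53-1 at 37 °C; 2-3 technical replicates each.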

Saccharomyces cerevisiae [2] = test: as above; conditions: genetic background: wild type; temperature: 30 C
[3] = genetic background: cdc34-1, temperature: 37 C
[4] = genetic background: cdc53-1, temperature: 37 C
[5] = genetic background: das1 deletion, temperature: 30 C
[6] = genetic background: das1 deletion, temperature: 37 C
[7] = genetic background: doa10 deletion, temperature: 30 C
[8] = genetic background: wild type, temperature: 30 C
[9] = genetic background: wild type, temperature: 37 C
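Note: PSI is a weighted mean of sequencing reads over stability bins, variants kept only with over 10 reads, mCherry proximal and sfGFP distal, peptide attached via GGGS linker.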

| Sequence | protein stability index (Saccharomyces cerevisiae [1]; [3]) | protein stability index (Saccharomyces cerevisiae [1]; [4]) | protein stability index (Saccharomyces cerevisiae [1]; [5]) | protein stability index (Saccharomyces cerevisiae [1]; [6]) | protein stability index (Saccharomyces cerevisiae [1]; [7]) | protein stability index (Saccharomyces cerevisiae [1]; [8]) | protein stability index (Saccharomyces cerevisiae [1]; [9]) | protein stability index (Saccharomyces cerevisiae [2]) |
| --- | --- | --- | --- | --- | --- | --- | --- | --- |
| CFVRCFVSIRLF | 0.109 ± 0.041 | 0.167 ± 0.0043 | 0.163 ± 0.019 | 0.3093 ± 0.0021 | 0.0737 ± 0.012 | 0.0716 ± 0.026 | 0.146 ± 0.015 | 0.133 ± 0.034 |
| CGGLFDVALGVG | 0.457 ± 0.031 | 0.5096 ± 0.0026 | 0.449 ± 0.01 | 0.522 ± 0.011 | 0.477 ± 0.021 | 0.468 ± 0.023 | 0.516 ± 0.0067 | 0.471 ± 0.027 |
| CGGVQVWRVKVV | 0.657 ± 0.023 | 0.715 ± 0.012 | 0.605 ± 0.011 | 0.722 ± 0.0077 | 0.18 ± 0.016 | 0.221 ± 0.018 | 0.401 ± 0.0066 | 0.3403 ± 0.002 |
| CLCLICFLCWFA | 0.475 ± 0.037 | 0.546 ± 0.012 | 0.408 ± 0.0097 | 0.514 ± 0.0052 | 0.387 ± 0.01 | 0.384 ± 0.038 | 0.4958 ± 0.0039 |  |
| GFLGMFFFWFAL | 0.588 ± 0.0078 | 0.648 ± 0.05 | 0.4628 ± 0.0043 | 0.635 ± 0.011 | 0.461 ± 0.012 | 0.473 ± 0.022 | 0.579 ± 0.018 |  |
| GGGGMGRRVGVG | 0.361 ± 0.036 | 0.4177 ± 0.0019 | 0.396 ± 0.0093 | 0.4202 ± 0.0022 | 0.4009 ± 0.0015 | 0.398 ± 0.011 | 0.415 ± 0.0084 |  |
| LCLPLYIRILSF | 0.0413 ± 0.0034 | 0.052 ± 0.0091 | 0.145 ± 0.03 | 0.18258 ± 1.6e-05 | 0.161 ± 0.0023 | 0.129 ± 0.016 | 0.126 ± 0.013 |  |
| LPPTPPLSPPPH | 0.644 ± 0.025 | 0.688 ± 0.0077 | 0.435 ± 0.028 | 0.5935 ± 0.0017 | 0.414 ± 0.0084 | 0.433 ± 0.014 | 0.5864 ± 0.005 |  |
| LSPRPPAPYYSP | 0.657 ± 0.067 | 0.733 ± 0.0089 | 0.662 ± 0.041 | 0.725 ± 0.014 | 0.676 ± 0.03 | 0.662 ± 0.028 | 0.7271 ± 0.0069 |  |
| PSPHRAPPGGHP | 0.68 ± 0.059 | 0.699 ± 0.026 | 0.6636 ± 0.0019 | 0.7271 ± 0.0067 | 0.673 ± 0.03 | 0.688 ± 0.04 | 0.701 ± 0.0029 |  |
| RKKIRTYINENV | 0.686 ± 0.079 | 0.699 ± 0.038 | 0.612 ± 0.018 | 0.766 ± 0.05 | 0.271 ± 0.018 | 0.334 ± 0.04 | 0.568 ± 0.015 |  |
| RPPPTPRSVLLN | 0.67 ± 0.021 | 0.7154 ± 0.0015 | 0.668 ± 0.011 | 0.71 ± 0.038 | 0.265 ± 0.024 | 0.286 ± 0.024 | 0.506 ± 0.011 |  |
| SVPCWVFLFCLA | 0.349 ± 0.01 | 0.416 ± 0.028 | 0.281 ± 0.03 | 0.462 ± 0.02 | 0.184 ± 0.016 | 0.227 ± 0.025 | 0.4033 ± 0.0033 |  |
| TWGGGRVSLGGG | 0.316 ± 0.038 | 0.4048 ± 0.0019 | 0.361 ± 0.013 | 0.4176 ± 0.0019 | 0.363 ± 0.01 | 0.364 ± 0.017 | 0.407 ± 0.028 |  |
| VCNSIPLTPPPA | 0.679 ± 0.031 | 0.7272 ± 0.0045 | 0.618 ± 0.025 | 0.716 ± 0.015 | 0.6171 ± 0.00098 | 0.641 ± 0.026 | 0.703 ± 0.033 |  |
